Reference: doi:10.1101/2021.09.13.460064
Like-named read-outs stand apart in the source and are kept apart here. Values belong to the substance of their own block, whether it stands above or below them.

Key:
Experiment in all cases: SEC-MALS
[1] = target: His-tagged N. castellii Kar9 N-terminal domain, wild type (NcKar9N-αβγ) (Naumovozyma castellii)
[2] = target: His-tagged NcKar9N-αβ• (γ-interface mutant, Tyr363Ala/Arg364Ala) (Naumovozyma castellii)
[3] = target: His-tagged NcKar9N-αβ• (γ-interface mutant, Tyr363Ala/Arg364Ala) (Naumovozyma castellii); remark: listed apart in the source
[4] = target: His-tagged NcKar9N-α•γ (β-interface mutant, Arg233Ala/Ile237Ala) (Naumovozyma castellii)
[5] = target: His-tagged NcKar9N-α•γ (β-interface mutant, Arg233Ala/Ile237Ala) (Naumovozyma castellii); remark: listed apart in the source

stoichiometry N [1]: 2
Substance: His-tagged N. castellii Kar9 N-terminal domain, wild type (NcKar9N-αβγ) (domain or fragment)

stoichiometry N [2]: < 4
stoichiometry N [3]: < 4
Substance: His-tagged NcKar9N-αβ• (γ-interface mutant, Tyr363Ala/Arg364Ala) (domain or fragment)

stoichiometry N [4]: 2
stoichiometry N [5]: 2
Substance: His-tagged NcKar9N-α•γ (β-interface mutant, Arg233Ala/Ile237Ala) (domain or fragment)
